{
  "source": "patent US20250019437A1",
  "binders": {"B1": {"name": "6E7 antibody affinity modulation variant V4 (antibody, V domains shown)", "VH": "EVQLVQSGAEVKKPGESLKISCKGSGYSFGSYWIAWVRQMPGKGLEWMGIIYPGDSDTRVSPSFQGQVTISADKSISTAYLQWSSLKASDTAMYFCARSRTFYYDSSDYFDYWGQGTLVTVSS", "VL": "DIQMTQSPSSVSASVGDRVTITCRASQGISSWLAWYQQKPGKAPKLLIYAASRLQNGVPSRFSGSGSGTDFTLTISSLQPEDFATYFCQQADSYPRTFGQGTKLEIK"}, "B2": {"name": "6E7 antibody affinity modulation variant V17 (antibody, V domains shown)", "VH": "B1 VH with V60Y", "VL": "B1 VL with R53S, L54R, Y94S"}, "B3": {"name": "6E7 antibody affinity modulation variant V28 (antibody, V domains shown)", "VH": "B1 VH with G30Q, I50T, V60Y, S99Q, Y103F", "VL": "B1 VL with R53S, N56S, Y94L"}, "B4": {"name": "6E7 antibody affinity modulation variant V16 (antibody, V domains shown)", "VH": "B1 VH with F29M, G30T, S56G, V60Y", "VL": "B1 VL with R53N, Y94F"}, "B5": {"name": "6E7 antibody affinity modulation variant V24 (antibody, V domains shown)", "VH": "B1 VH with G30T, T58V, V60Y", "VL": "B1 VL with R53S, N56K, Y94F, R96H"}, "B6": {"name": "6E7 antibody affinity modulation variant V13 (antibody, V domains shown)", "VH": "B1 VH with V60Y, P62A, S99G", "VL": "B1 VL with R53S, N56G, Y94M"}, "B7": {"name": "6E7 antibody affinity modulation variant V25 (antibody, V domains shown)", "VH": "B1 VH with I50L, V60Y", "VL": "B1 VL with R53S, Q55A, Y94M"}, "B8": {"name": "6E7 antibody affinity modulation variant V5 (antibody, V domains shown)", "VH": "B1 VH with G30T, I50T, V60Y, S99Q", "VL": "B1 VL with R53S, Y94H"}, "B9": {"name": "6E7 antibody affinity modulation variant V15 (antibody, V domains shown)", "VH": "B1 VH with G30A, I50T, V60Y", "VL": "B1 VL with R53W"}, "B10": {"name": "6E7 antibody affinity modulation variant V29 (antibody, V domains shown)", "VH": "B1 VH with G30K, V60Y, S99Q", "VL": "B1 VL with R53S, Y94F"}, "B11": {"name": "6E7 antibody affinity modulation variant V26 (antibody, V domains shown)", "VH": "B1 VH with G30T, A35G, I50T, V60Y, S99Q, F102M, Y112A", "VL": "B1 VL with R53S, N56R"}, "B12": {"name": "6E7 antibody affinity modulation variant V27 (antibody, V domains shown)", "VH": "B1 VH with G30T, V60Y, S61A, A97V", "VL": "B1 VL with R53S, N56R, Y94F"}, "B13": {"name": "6E7 antibody affinity modulation variant V14 (antibody, V domains shown)", "VH": "B1 VH with S56Q, V60Y, S99G", "VL": "B1 VL with Y94F"}},
  "note": "Changes are numbered by the printed parent chain.",
  "data": [
    {"target": "T1, human TREM2 (triggering receptor expressed on myeloid cells 2) (human) (UniProt Q9NZC2)", "T1 sequence (looked up)": "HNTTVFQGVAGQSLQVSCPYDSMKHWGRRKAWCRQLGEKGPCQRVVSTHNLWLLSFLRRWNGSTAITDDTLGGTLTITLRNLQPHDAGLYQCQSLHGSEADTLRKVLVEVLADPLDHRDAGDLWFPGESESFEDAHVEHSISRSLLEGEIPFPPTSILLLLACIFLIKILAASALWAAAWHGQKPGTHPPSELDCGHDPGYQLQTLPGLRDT", "assay": "2nd screen, 2 nM Ab", "units": {"Binding Signal (fold over 6E7 parental antibody)": "fold"}, "values": [
      {"binder": "B1", "Binding Signal (fold over 6E7 parental antibody)": 5.88},
      {"binder": "B2", "Binding Signal (fold over 6E7 parental antibody)": 4.22},
      {"binder": "B3", "Binding Signal (fold over 6E7 parental antibody)": 2.63},
      {"binder": "B4", "Binding Signal (fold over 6E7 parental antibody)": 3.57},
      {"binder": "B5", "Binding Signal (fold over 6E7 parental antibody)": 1.42},
      {"binder": "B6", "Binding Signal (fold over 6E7 parental antibody)": 1.15},
      {"binder": "B7", "Binding Signal (fold over 6E7 parental antibody)": 3.15},
      {"binder": "B8", "Binding Signal (fold over 6E7 parental antibody)": 1.25},
      {"binder": "B9", "Binding Signal (fold over 6E7 parental antibody)": 4.72},
      {"binder": "B10", "Binding Signal (fold over 6E7 parental antibody)": 0.84},
      {"binder": "B11", "Binding Signal (fold over 6E7 parental antibody)": 2.83},
      {"binder": "B12", "Binding Signal (fold over 6E7 parental antibody)": 5.67},
      {"binder": "B13", "Binding Signal (fold over 6E7 parental antibody)": 2.57}
    ]},
    {"target": "T1, human TREM2 (triggering receptor expressed on myeloid cells 2) (human)", "assay": "1st screen, 10 nM Ab", "units": {"Binding Signal (fold over 6E7 parental antibody)": "fold"}, "values": [
      {"binder": "B1", "Binding Signal (fold over 6E7 parental antibody)": 6},
      {"binder": "B2", "Binding Signal (fold over 6E7 parental antibody)": 5.37},
      {"binder": "B3", "Binding Signal (fold over 6E7 parental antibody)": 3.08},
      {"binder": "B4", "Binding Signal (fold over 6E7 parental antibody)": 4.01},
      {"binder": "B5", "Binding Signal (fold over 6E7 parental antibody)": 2.64},
      {"binder": "B6", "Binding Signal (fold over 6E7 parental antibody)": 1.31},
      {"binder": "B7", "Binding Signal (fold over 6E7 parental antibody)": 4.23},
      {"binder": "B8", "Binding Signal (fold over 6E7 parental antibody)": 2.73},
      {"binder": "B9", "Binding Signal (fold over 6E7 parental antibody)": 5.23},
      {"binder": "B10", "Binding Signal (fold over 6E7 parental antibody)": 1.53},
      {"binder": "B11", "Binding Signal (fold over 6E7 parental antibody)": 3.57},
      {"binder": "B12", "Binding Signal (fold over 6E7 parental antibody)": 5.5},
      {"binder": "B13", "Binding Signal (fold over 6E7 parental antibody)": 4.71}
    ]},
    {"target": "T1, human TREM2 (triggering receptor expressed on myeloid cells 2) (human)", "assay": "2nd screen, 10 nM Ab", "units": {"Binding Signal (fold over 6E7 parental antibody)": "fold"}, "values": [
      {"binder": "B1", "Binding Signal (fold over 6E7 parental antibody)": 5.51},
      {"binder": "B2", "Binding Signal (fold over 6E7 parental antibody)": 5.51},
      {"binder": "B3", "Binding Signal (fold over 6E7 parental antibody)": 3.61},
      {"binder": "B4", "Binding Signal (fold over 6E7 parental antibody)": 4.04},
      {"binder": "B5", "Binding Signal (fold over 6E7 parental antibody)": 2.9},
      {"binder": "B6", "Binding Signal (fold over 6E7 parental antibody)": 1.35},
      {"binder": "B7", "Binding Signal (fold over 6E7 parental antibody)": 4.7},
      {"binder": "B8", "Binding Signal (fold over 6E7 parental antibody)": 2.84},
      {"binder": "B9", "Binding Signal (fold over 6E7 parental antibody)": 4.78},
      {"binder": "B10", "Binding Signal (fold over 6E7 parental antibody)": 1.67},
      {"binder": "B11", "Binding Signal (fold over 6E7 parental antibody)": 3.47},
      {"binder": "B12", "Binding Signal (fold over 6E7 parental antibody)": 5.69},
      {"binder": "B13", "Binding Signal (fold over 6E7 parental antibody)": 4.64}
    ]}
  ]
}
